According to paper PMC6405930, “Conservation of the Amyloid Interactome Across Diverse Fibrillar Structures” (Scientific Reports, 2019):

Tests used:
C-36 fibrils [1] = target: T1, C-36 fibrils (Homo sapiens, UniProt P01009); assay: Fibril incubation with plasma, quantitative MS/MS of bound proteins; format: binding; settings: 50:1 w/w plasma protein:fibril
T1 construct: the 36 residue C-terminal fragment of α1-antitrypsin (C-36)
Procedure: (§1) Plasma and CSF solutions were centrifuged (40,000 g, 20 min) to remove any aggregates. The protein concentration was determined using 280 nm absorbance assuming 1 Abs = 1 mg/mL. […] Control samples (without fibril material) were prepared similarly. All samples were incubated at room temperature for one hour under gentle agitation. Fibrils and fibril-bound proteins were pelleted by centrifugation at 17,000 g for 30 minutes. The supernatant (175 μL) was removed and the aggregate was re-suspended in 175 μL PBS and pelleted again before further preparation for gel analysis and spin-filter assisted digest for quantitative MS/MS.
(§2) The fibril-protein pellets were transferred to spin-filters (0.22 μm), washed twice in PBS (100 μL) and once in 1 M NaCl (100 μL). The fibrils and fibril-bound proteins were dissolved by one-hour incubation in 100 μL 6 M guanidinium chloride followed by elution from the spin-filter. The eluted proteins were loaded onto a 3 kDa MWCO filter unit for filter-assisted unfolding, reduction, alkylation, and trypsin digestion. In brief, samples were washed twice in 8 M urea, once in 8 M urea with 50 mM DTT, once in 8 M urea with 50 mM iodoaceteamide, and twice in 8 M Urea. The filter units were dried by centrifugation (14,000 g in 30 minutes) after every addition. Trypsin digestion was carried out with 0.25 μg sequencing grade trypsin from Sigma Aldrich in 50 mM ammonium bicarbonate overnight at 37 °C. The tryptic peptides were collected by centrifugation, acidified with TFA (0.1%) and micro-purified using POROS R2 column material (Applied Biosystems) packed in P200 pipette tips (Sarstedt).
(§3) LC-MS/MS analyses were performed on an EASY-nLC II system (Thermo Fisher Scientific) connected to a TripleTOF 5600+ mass spectrometer (Sciex) equipped with a NanoSpray III source (Sciex) and operated under Analyst TF 1.6.0 control.
(§4) The micro-purified tryptic peptides were dissolved in 0.1% formic acid, injected and trapped on an in-house packed trap column (2 cm × 100 μm I.D) with RP ReproSil-Pur C18-AQ 3 μm resin (Dr. Maisch GmbH). Peptides were eluted from the trap column and separated on a 15 cm analytical column (75 μm i.d.) packed in-house in a pulled emitter with RP ReproSil-Pur C18-AQ 3 μm resin (Dr. Maisch GmbH). Elution from the analytical column was performed with a linear gradient from 5% to 35% phase B (90% acetonitrile with 0.1% formic acid) over 20 min for protein identification and 50 min for quantitative analysis, respectively.
(§5) All samples were analysed three times, yielding nine MS/MS experiments for each fibril for both plasma and CSF. For the area-based extracted ion chromatogram (XIC) quantification, the acquisition method was set up as an information-dependent acquisition (IDA) experiment collecting up to 25 MS/MS spectra in each 1.6 sec cycle using an exclusion window of 6 sec.
(§6) XIC quantification was based on the average ion intensity of the three most abundant peptides for each protein. Only proteins quantified in at least four out of nine MS/MS experiments per fibril were included in the quantification. The total ion scores were visualized after grouping the proteins according to function (Figure S11).
(§7) For each MS/MS experiment, the ion intensities of the individual proteins were normalized to the total ion intensity of that MS/MS experiment to achieve a relative protein composition. The contribution of each protein was averaged over all nine MS/MS experiments (Tables 1 and 2).

αSN fibrils = αSN fibrils (Homo sapiens, UniProt P37840); assay: as above; format: binding; settings: 50:1 w/w plasma protein:fibril
Procedure: as §1, §2, §3, §4, §5, §6, §7

FAS4-AD aggregates [2] = tested on: T2, FAS4-AD aggregates; assay: as above; format: binding, human; parameters: key to Identification status of plasma protein bound: FAS4-AD: *: Identified, but not quantified; —: Not identified in any of the samples; settings: for Relative composition of plasma proteins bound: FAS4-AD: 50:1 w/w plasma protein:fibril
T2 construct: aggregates of a mutated version of the FAS1-4 domain of TGFBIp
Procedure: as §1, §2, §3, §4, §5, §6, §7

Ab2 fibrils [3] = tested on: T3, Ab2 fibrils; assay: as above; format: binding, human; settings: 50:1 w/w plasma protein:fibril
T3 construct: Two structurally distinct fibrils of the Aβ(1–40) peptide associated with AD
Procedure: as §1, §2, §3, §4, §5, §6, §7

Ab1 fibrils [4] = tested on: T4, Ab1 fibrils; assay: as above; format: binding, human; settings: 50:1 w/w plasma protein:fibril
T4 construct: Synthetic amyloid β peptide 1–40 was purchased from Caslo Aps (Lyngby, Denmark); purchased Caslo Aps (Lyngby, Denmark); host or cells: synthetic peptide
Procedure: Plasma and CSF solutions were centrifuged (40,000 g, 20 min) to remove any aggregates. The protein concentration was determined using 280 nm absorbance assuming 1 Abs = 1 mg/mL. […] Control samples (without fibril material) were prepared similarly. All samples were incubated at room temperature for one hour under gentle agitation. Fibrils and fibril-bound proteins were pelleted by centrifugation at 17,000 g for 30 minutes. The supernatant (175 μL) was removed and the aggregate was re-suspended in 175 μL PBS and pelleted again before further preparation for gel analysis and spin-filter assisted digest for quantitative MS/MS.
as §2, §3, §4, §5, §6, §7

glucagon fibrils [5] = target: T5, glucagon fibrils (Homo sapiens, UniProt P01275); assay: as above; format: binding; settings: 50:1 w/w plasma protein:fibril
T5 construct: fibrils of the peptide hormone glucagon
T5 sequence (P01275 53-81 limits assumed): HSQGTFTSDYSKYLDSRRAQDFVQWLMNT
Procedure: as §1, §2, §3, §4, §5, §6, §7

Ab1 fibrils [6] = tested on: T4, Ab1 fibrils; assay: Fibril incubation with CSF, quantitative MS/MS of bound proteins; format: binding, human; settings: 4:1 w/w CSF protein:fibril
Procedure: as §1, §2, §3, §4, §5, §6, §7

glucagon fibrils [7] = target: T5, glucagon fibrils; assay: as above; format: binding; settings: 4:1 w/w CSF protein:fibril
Procedure: as §1, §2, §3, §4, §5, §6, §7

Ab2 fibrils [8] = tested on: T3, Ab2 fibrils; assay: as above; format: binding, human; settings: 4:1 w/w CSF protein:fibril
Procedure: as §1, §2, §3, §4, §5, §6, §7

FAS4-AD aggregates [9] = tested on: T2, FAS4-AD aggregates; assay: as above; format: binding, human; parameters: key to Identification status of CSF protein bound: FAS4-AD: *: Identified, but not quantified; —: Not identified in any of the samples; settings: symbol cells
Procedure: as §1, §2, §3, §4, §5, §6, §7

C-36 fibrils [10] = target: T1, C-36 fibrils; assay: as above; format: binding; settings: 4:1 w/w CSF protein:fibril
Procedure: as §1, §2, §3, §4, §5, §6, §7

T1 sequence (P01009 383-418 limits assumed): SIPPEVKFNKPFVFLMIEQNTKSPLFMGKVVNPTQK

B1: Ig μ chain C region: plasma protein bound to fibrils (protein, UniProt P01871 1-474, looked up)
Immunoglobulin heavy constant …: GSASAPTLFPLVSCENSPSDTSSVAVGCLAQDFLPDSITFSWKYKNNSDISSTRGFPSVLRGGKYAATSQVLLPSKDVMQGTDEHVVCKVQHPNGNKEKNVPLPVIAELPPKVSVFVPPRDGFFGNPRKSKLICQATGFSPRQIQVSWLREGKQVGSGVTTDQVQAEAKESGPTTYKVTSTLTIKESDWLGQSMFTCRVDHRGLTFQQNASSMCVPDQDTAIRVFAIPPSFASIFLTKSTKLTCLVTDLTTYDSVTISWTRQNGEAVKTHTNISESHPNATFSAVGEASICEDDWNSGERFTCTVTHTDLPSPLKQTISRPKGVALHRPDVYLLPPAREQLNLRESATITCLVTGFSPADVFVQWMQRGQPLSPEKYVTSAPMPEPQAPGRYFAHSILTVSEEEWNTGETYTCVVAHEALPNRVTERTVDKSTEGEVSADEEGFENLWATASTFIVLFLLSLFYSTTVTLFKVK
Relative composition of plasma proteins bound: C-36 (C-36 fibrils [1]): 0.4 ± 0.1 % of total protein | Relative composition of plasma proteins bound: αSN (αSN fibrils): 0.5 ± 0.2 % of total protein | Relative composition of plasma proteins bound: FAS4-AD (FAS4-AD aggregates [2]): 2.6 ± 1.5 % of total protein | Relative composition of plasma proteins bound: Ab2 (Ab2 fibrils [3]): 0.7 ± 0.2 % of total protein | Relative composition of plasma proteins bound: Ab1 (Ab1 fibrils [4]): 0.6 ± 0.0 % of total protein | Relative composition of plasma proteins bound: Glucagon (glucagon fibrils [5]): 0.8 ± 0.1 % of total protein

B2: C4b-binding protein α chain: plasma protein bound to fibrils (protein, UniProt P04003 49-597, looked up)
C4b-binding protein alpha …: NCGPPPTLSFAAPMDITLTETRFKTGTTLKYTCLPGYVRSHSTQTLTCNSDGEWVYNTFCIYKRCRHPGELRNGQVEIKTDLSFGSQIEFSCSEGFFLIGSTTSRCEVQDRGVGWSHPLPQCEIVKCKPPPDIRNGRHSGEENFYAYGFSVTYSCDPRFSLLGHASISCTVENETIGVWRPSPPTCEKITCRKPDVSHGEMVSGFGPIYNYKDTIVFKCQKGFVLRGSSVIHCDADSKWNPSPPACEPNSCINLPDIPHASWETYPRPTKEDVYVVGTVLRYRCHPGYKPTTDEPTTVICQKNLRWTPYQGCEALCCPEPKLNNGEITQHRKSRPANHCVYFYGDEISFSCHETSRFSAICQGDGTWSPRTPSCGDICNFPPKIAHGHYKQSSSYSFFKEEIIYECDKGYILVGQAKLSCSYSHWSAPAPQCKALCRKPELVNGRLSVDKDQYVEPENVTIQCDSGYGVVGPQSITCSGNRTWYPEVPKCEWETPEGCEQVLTGKRLMQCLPNPEDVKMALEVYKLSLEIEQLELQRDSARQSTLDKEL
Relative composition of plasma proteins bound: C-36 (C-36 fibrils [1]): 5.5 ± 0.3 % of total protein | Relative composition of plasma proteins bound: αSN (αSN fibrils): 7.4 ± 2.5 % of total protein | Relative composition of plasma proteins bound: FAS4-AD (FAS4-AD aggregates [2]): 2.7 ± 0.9 % of total protein | Relative composition of plasma proteins bound: Ab2 (Ab2 fibrils [3]): 9.9 ± 0.5 % of total protein | Relative composition of plasma proteins bound: Ab1 (Ab1 fibrils [4]): 6.1 ± 0.2 % of total protein | Relative composition of plasma proteins bound: Glucagon (glucagon fibrils [5]): 3.0 ± 0.1 % of total protein

B3: Ig γ -2 chain C region: plasma/CSF protein bound to fibrils (protein, UniProt P01859 1-395, looked up)
Immunoglobulin heavy constant …: ASTKGPSVFPLAPCSRSTSESTAALGCLVKDYFPEPVTVSWNSGALTSGVHTFPAVLQSSGLYSLSSVVTVPSSNFGTQTYTCNVDHKPSNTKVDKTVERKCCVECPPCPAPPVAGPSVFLFPPKPKDTLMISRTPEVTCVVVDVSHEDPEVQFNWYVDGVEVHNAKTKPREEQFNSTFRVVSVLTVVHQDWLNGKEYKCKVSNKGLPAPIEKTISKTKGQPREPQVYTLPPSREEMTKNQVSLTCLVKGFYPSDISVEWESNGQPENNYKTTPPMLDSDGSFFLYSKLTVDKSRWQQGNVFSCSVMHEALHNHYTQKSLSLSPELQLEESCAEAQDGELDGLWTTITIFITLFLLSVCYSATITFFKVKWIFSSVVDLKQTIVPDYRNMIRQGA
Relative composition of plasma proteins bound: C-36 (C-36 fibrils [1]): 1.2 ± 0.2 % of total protein | Relative composition of CSF proteins bound: Ab1 (Ab1 fibrils [6]): 1.7 ± 0.2 % of total protein | Relative composition of CSF proteins bound: Glucagon (glucagon fibrils [7]): 1.1 ± 0.3 % of total protein | Relative composition of CSF proteins bound: Ab2 (Ab2 fibrils [8]): 2.0 ± 0.3 % of total protein | Relative composition of plasma proteins bound: αSN (αSN fibrils): 1.2 ± 0.8 % of total protein | Identification status of CSF protein bound: FAS4-AD (FAS4-AD aggregates [9]): * | Relative composition of CSF proteins bound: C-36 (C-36 fibrils [10]): 1.0 ± 0.3 % of total protein | Relative composition of plasma proteins bound: Ab2 (Ab2 fibrils [3]): 0.9 ± 0.1 % of total protein | Relative composition of plasma proteins bound: Ab1 (Ab1 fibrils [4]): 0.9 ± 0.1 % of total protein | Relative composition of plasma proteins bound: Glucagon (glucagon fibrils [5]): 0.9 ± 0.1 % of total protein

B4: C4b-binding protein β chain: plasma protein bound to fibrils (protein, UniProt P20851 18-252, looked up)
C4b-binding protein beta chain: SDAEHCPELPPVDNSIFVAKEVEGQILGTYVCIKGYHLVGKKTLFCNASKEWDNTTTECRLGHCPDPVLVNGEFSSSGPVNVSDKITFMCNDHYILKGSNRSQCLEDHTWAPPFPICKSRDCDPPGNPVHGYFEGNNFTLGSTISYYCEDRYYLVGVQEQQCVDGEWSSALPVCKLIQEAPKPECEKALLAFQESKNLCEAMENFMQQLKESGMTMEELKYSLELKKAELKAKLL
Relative composition of plasma proteins bound: C-36 (C-36 fibrils [1]): 0.7 ± 0.1 % of total protein | Relative composition of plasma proteins bound: αSN (αSN fibrils): 1.3 ± 0.4 % of total protein | Identification status of plasma protein bound: FAS4-AD (FAS4-AD aggregates [2]; symbol cells): * | Relative composition of plasma proteins bound: Ab2 (Ab2 fibrils [3]): 1.3 ± 0.3 % of total protein | Relative composition of plasma proteins bound: Ab1 (Ab1 fibrils [4]): 0.9 ± 0.1 % of total protein | Relative composition of plasma proteins bound: Glucagon (glucagon fibrils [5]): 0.5 ± 0.1 % of total protein
